Response (HSP90/V5 ratio) data for two molecules are collected here from PMC5404317.

This assay addresses HSP90, P07900. Briefly: co-immunoprecipitation (V5 agarose) with western blot quantification. The conditions noted are these: chain shown with the change, HeLa cells, read off a plot. On the technique in general: In western blotting, separated proteins are transferred to a membrane and probed.
The mark [1] stands for this setting: 10 μM CCCP for 2 h, parent: est. 0.82.
Setting [2] is: untreated (no CCCP), parent: est. 1.0.

Substitutions are numbered along the chain they refer to. In names and notes the source's numbering stands.

B1: PINK1-V5 WT (V5-6xHis-tagged PINK1 wild type), Q9BXM7 L347P (protein)
chain: AARLQRQFVVRAWGCAGPCGRAVFLAFGLGLGLIEEKQAESRRAVSACQEIQAIFTQKSKPGPDPLDTRRLQGFRLEEYLIGQSIGKGCSAAVYEATMPTLPQNLEVTKSTGLLPGRGPGTSAPGEGQERAPGAPAFPLAIKMMWNISAGSSSEAILNTMSQELVPASRVALAGEYGAVTYRKSKRGPKQLAPHPNIIRVLRAFTSSVPLLPGALVDYPDVLPSRLHPEGLGHGRTLFLVMKNYPCTLRQYLCVNTPSPRLAAMMLLQLPEGVDHLVQQGIAHRDLKSDNILVELDPDGCPWLVIADFGCCLADESIGLQLPFSSWYVDRGGNGCLMAPEVSTARPGPRAVIDYSKADAWAVGAIAYEIFGLVNPFYGQGKAHLESRSYQEAQLPALPESVPPDVRQLVRALLQREASKRPSARVAANVLHLSLWGEHILALKNLKLDKMVGWLLQQSAATLLANRLTEKCCVETKMKMLFLANLECETLCQAALLLCSWRAAL
With B1, the response (HSP90/V5 ratio) worked out at 0.42 under setting [1] and 0.54 under setting [2].

B2: PINK1-V5 WT (V5-6xHis-tagged PINK1 wild type), Q9BXM7 I368N (protein)
chain: B1 chain with P270L, I291N
With B2, the response (HSP90/V5 ratio) amounted to 0.62 under setting [1] and 0.6 under setting [2].
